# T1: human GHR (Homo sapiens, UniProt P10912)
# T1 construct: his-tagged monomers of amino acids 31-235 of the extracellular domain of the human or cyno GHR
# T1 sequence (P10912 49-253): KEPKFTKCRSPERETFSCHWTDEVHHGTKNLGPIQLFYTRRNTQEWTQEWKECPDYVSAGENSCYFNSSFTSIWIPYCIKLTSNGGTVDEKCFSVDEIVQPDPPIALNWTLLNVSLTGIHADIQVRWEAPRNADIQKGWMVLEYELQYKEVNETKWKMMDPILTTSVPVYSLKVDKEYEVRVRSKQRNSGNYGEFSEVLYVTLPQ
# Experiments:
# human GHR = molecular target: T1, human GHR; assay: Biacore kinetics and affinity, immobilized Fab, human GHR analyte, 37° C.; assay type: binding; details: Fab captured on anti-human kappa surface
# Procedure: (§1) The affinity of GHR antibody SS1 Fab to human and cyno GHR was measured on a Biacore™ T200 biosensor (GE Lifesciences™, Piscataway N.J.).
# (§2) An anti-human kappa sensor chip was prepared by activating all flow cells of a Biacore™ CM4 sensor chip with a 1:1 (v/v) mixture of 400 mM EDC and 100 mM NHS for 7 minutes, at a flow rate of 10 μL/min. An anti-human kappa reagent (goat F(ab′)2 fragment anti-human kappa, Southern Biotech Catalog #2063-01) was diluted to 50 μg/mL in 10 mM sodium acetate pH 4.5 and injected on all flow cells for 7 minutes at 20 μL/min. All flow cells were blocked with 100 mM ethylenediamine in 150 mM borate buffer pH 8.5 for 7 minutes at 10 μL/min.
# (§3) The kinetics assay was run using a methodology with varying dissociation times as described in Katsamba et al., supra. Fabs were captured onto downstream flow cells (flow cells 2, 3 and 4) at 2 μg/mL at a flow rate of 10 μL/min for 2 minutes. Different Fabs were captured on each flow cell. Flow cell 1 was used as a reference surface. […] After the analyte injection, dissociation was monitored for 30 minutes (for the 133 nM and 400 nM GHR cycles) or 60 seconds (all other cycles) followed by regeneration with three 30-second injections of 10 mM glycine pH 1.7. A 6-membered dilution series of GHR was analyzed using this method, where the top concentration was 400 nM and the dilution factor was 3-fold. […]
# cyno GHR = assay: Biacore kinetics and affinity, immobilized Fab, cyno GHR analyte, 37° C.; assay type: binding, cynomolgus monkey; details: Fab captured on anti-human kappa surface
# Procedure: as §1, §2, §3
# hGHR-hFc = molecular target: T2, hGHR-hFc (Homo sapiens, UniProt P10912); assay: Biacore kinetics and affinity, immobilized hGHR-hFc, Fab analyte, 37° C.; assay type: binding; details: hGHR-hFc captured on anti-human Fc surface
# T2 construct: purchased R&D Systems 1210-GR
# Procedure: as §1
# as §2, with “anti-human Fc” for “anti-human kappa”, “fragment to human IgG Fc, Cappel” for “fragment anti-human kappa, Southern Biotech”, “Catalog #55053)” for “Catalog #2063-01)”, “to 60” for “to 50”, “pH 5.0” for “pH 4.5”
# The kinetics assay was run using a methodology with varying dissociation times as described in Katsamba et al., supra. The hGHR-hFc fusion protein (R&D Systems™ Catalog#1210-GR) was captured onto downstream flow cells at 2 μg/mL at a flow rate of 10 μL/min for 30 seconds, 1 minute and 2 minutes on flow cells 2, 3 and 4, respectively. Flow cell 1 was used as a reference surface. […] After the analyte injection, dissociation was monitored for 30 minutes (400 nM Fab cycle) or 60 seconds (all other cycles) followed by regeneration with two 30-second injections of 75 mM phosphoric acid. A 5-membered dilution series of Fab was analyzed using this method, where the top concentration was 400 nM and the dilution factor was 3-fold. […]
# Sequence of cyno GHR (as listed by the source): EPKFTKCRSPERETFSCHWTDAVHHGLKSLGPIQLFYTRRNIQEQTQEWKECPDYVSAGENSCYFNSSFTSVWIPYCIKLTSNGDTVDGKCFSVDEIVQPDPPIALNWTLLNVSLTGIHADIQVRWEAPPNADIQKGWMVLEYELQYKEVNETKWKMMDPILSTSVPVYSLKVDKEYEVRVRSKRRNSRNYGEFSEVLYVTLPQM
# T2 sequence (P10912 with tags, fused parts or gaps limits assumed): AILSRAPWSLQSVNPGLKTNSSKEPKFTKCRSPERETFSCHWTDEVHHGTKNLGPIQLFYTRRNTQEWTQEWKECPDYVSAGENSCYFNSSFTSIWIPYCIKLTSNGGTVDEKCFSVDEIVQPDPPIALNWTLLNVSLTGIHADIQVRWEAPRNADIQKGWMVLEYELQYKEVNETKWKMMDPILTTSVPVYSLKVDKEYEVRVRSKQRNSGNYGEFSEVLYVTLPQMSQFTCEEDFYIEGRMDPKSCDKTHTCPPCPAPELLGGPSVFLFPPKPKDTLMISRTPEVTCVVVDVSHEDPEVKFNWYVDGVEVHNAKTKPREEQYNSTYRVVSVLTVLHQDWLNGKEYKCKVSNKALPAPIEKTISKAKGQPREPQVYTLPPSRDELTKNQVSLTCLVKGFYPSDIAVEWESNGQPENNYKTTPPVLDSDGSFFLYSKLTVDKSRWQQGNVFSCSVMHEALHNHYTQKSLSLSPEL
molecule,measurement,setting,value
"SS1 Fab: Fab of GHR antibody SS1 (antibody, V domains shown) VH: EVQLVESGGGLVKPGGSLRLSCAASGFTFSDAWMDWVRQAPGKGLEWVAEIRSKANYHATYYAESVKGRFTISRDDSKNTLYLQMNSLKTEDTAVYYCTLIRDYWGQGTLVTVSS VL: EIVLTQSPGTLSLSPGERATLSCTATSSVSSSYLNWYQQKPGQAPRLLIYSTSNLASGIPDRFSGSGSGTDFTLTISRLEPEDFAVYYCHQYHRSTPTFGGGTKVEIK",ka,human GHR,138000 M⁻¹ s⁻¹
same,kd,human GHR,0.000215 s⁻¹
same,ka,cyno GHR,182000 M⁻¹ s⁻¹
same,kd,cyno GHR,0.000576 s⁻¹
same,ka,hGHR-hFc,374000 M⁻¹ s⁻¹
same,kd,hGHR-hFc,0.000359 s⁻¹

# Reference: patent US9249224B2 (RINAT NEUROSCIENCE CORP., priority 2011, dated 2016)
